Measurements reported in patent US20200397816A1, “METHODS TO TREAT INFLAMMATORY AND SMOOTH MUSCLE CELL PROLIFERATION DISORDERS” (THE TRUSTEES OF INDIANA UNIVERSITY, priority 2019, published 2020).
“Also recorded” adds a separate entry of the source.

Columns and labels:
Type in all cases: cell-based, human
SphK1 = SphK1 protein western blot in hPASMC; settings: SMCs; EMAP II 6 hours
Method: (§1) RAW 264.7 (ATCC) mouse macrophages and Human Embryonic Kidney (HEK) 293T cells were cultured in DMEM media with 10% fetal bovine serum […] and glutamine HEPES buffer and beta-mercaptoethanol were added to the growth medium used for RAW 264.7 macrophages. […]
(§2) After appropriate treatments, protein lysates were prepared by using RIPA buffer supplemented with phosphatase and protease inhibitors (Thermo Fischer Scientific). […] Western blots were performed according to standard methods and quantified using densitometry using Image Studio Lite software from LI-COR Biosciences. […]
as §2, with “Fisher” for “Fischer”

hPASMC = assay: WST-1 cell proliferation assay in hPASMC; settings: SMCs; EMAP II 2 μg/mL 48 hours
Method: (§3) Cell proliferation of hPASMCs was assessed using WST-1 cell proliferation reagent (Roche Diagnostic Corporation, IN) in a 96-well plate. Human PASMCs were seeded at 4200 cells/well density in 100 μl complete medium and serum starved for overnight. Cells were stimulated for 48 hours with 2 μg/mL EMAP II following the pretreatment with inhibitors. WST-1 reagent (10 μL) was added into each well and incubated for 90 minutes in a humidified atmosphere with 5% CO2 at 370 C. Absorbance was measured at 450 nm using microplate reader. Blank control well was with medium and WST-1 reagent without cultured cells. All samples were in duplicates. Cell proliferation was determined by subtracting the background reading from average of duplicate of each sample.
as §3, with “37°” for “370”, “Blank control well was with medium and WST-1 reagent without cultured cells. All samples were in duplicates.” left out

Cyclin D1 = Cyclin D1 western blot in hPASMC; settings: SMCs; 48 hours of EMAP II stimulation
Method: as §1, §2
After appropriate treatments, protein lysates were prepared by using RIPA buffer supplemented with phosphatase and protease inhibitors (Thermo Fisher Scientific). […] Western blots were performed according to standard methods and quantified using densitometry using Image Studio Lite software from LI-COR Biosciences.

B1: EMAP II: 6x-His tagged recombinant EMAP II, cleaved C-terminal peptide of AIMP1 (SEQ ID NO: 2), pro-inflammatory cytokine (protein)
chain: IAGSADSKPIDVSRLDLRIGCIITARKHPDADSLYVEEVDVGEIAPRTVVSGLVNHVPLEQMQNRMVILLCNLKPAKMRGVLSQAMVMCASSPEKIEILAPPNGSVPGDRITFDAFPGEPDKELNPKKKIWEQIQPDLHTNDECVATYKGVPFEVKGKGVCRAQTMSNSGIK
SphK1 protein expression (SphK1): significant overexpression; also recorded: significantly increased | cell proliferation (WST1) (hPASMC): promotes cell proliferation | cyclin D1 expression (Cyclin D1): modulates cyclin D1; also recorded: marked increase
